Measurements as given in US20260242419A1, “A CYCLIC PEPTIDE FOR TRAPPING INTERLEUKIN-1 BETA” (Merck Sharp & Dohme LLC, priority 2023, published 2026).
Starred links: 1 amine or outer side, 2 acyl side, 3 side chain; linkers in the order of their positions; H or OH if unused. Non-standard residues stand in square brackets, D forms with d. Primed or numbered codes have the meaning given here. AEF4AcPip4c = (S)-3-(4-(2-(1-acetylpiperidine-4-carboxamido)ethoxy)phenyl)-2-aminopropanoic acid, CC(=O)N1CCC(C(=O)NCCOc2ccc(C[C@H](N[*:1])C(=O)[*:2])cc2)CC1; AEFPyrzCO = (S)-2-amino-3-(4-(2-(pyrazine-2-carboxamido)ethoxy)phenyl)propanoic acid, O=C(NCCOc1ccc(C[C@H](N[*:1])C(=O)[*:2])cc1)c1cnccn1; AEFcHex = (S)-2-amino-3-(4-(2-(cyclohexanecarboxamido)ethoxy)phenyl)propanoic acid, O=C(NCCOc1ccc(C[C@H](N[*:1])C(=O)[*:2])cc1)C1CCCCC1; AEFPiv = (S)-2-amino-3-(4-(2-pivalamidoethoxy)phenyl)propanoic acid, CC(C)(C)C(=O)NCCOc1ccc(C[C@H](N[*:1])C(=O)[*:2])cc1; Bip4CONMe2″ = 4'-(dimethylcarbamoyl)biphenylalanine, CN(C)C(=O)c1ccc(-c2ccc(C[C@H](N[*:1])C(=O)[*:2])cc2)cc1; OrnMe3 = ornithine with side-chain trimethylammonium, C[N+](C)(C)CCC[C@H](N[*:1])C(=O)[*:2]; Trp(4-Cl)(βS-Me) = C[C@@H](c1c[nH]c2cccc(Cl)c12)[C@H](N)C(=O)O; dPro(4R-(4-pyridylmethyl)) = O=C(O)[C@H]1C[C@@H](Cc2ccncc2)CN1; Trp(βS-Me,4-F) = C[C@@H](c1c[nH]c2cccc(F)c12)[C@H](N)C(=O)O; Bip(4'-CONH2) = NC(=O)c1ccc(-c2ccc(C[C@H](N)C(=O)O)cc2)cc1; Bip(4'-COOH) = N[C@@H](Cc1ccc(-c2ccc(C(=O)O)cc2)cc1)C(=O)O; dPro(4R-Bzl(4-F)) = O=C(O)[C@H]1C[C@@H](Cc2ccc(F)cc2)CN1; dPro(3S-(4-F-Bn)) = O=C(O)[C@@H]1NCC[C@@H]1Cc1ccc(F)cc1; 1Nal(3S-Me) = C[C@@H](c1cccc2ccccc12)[C@H](N)C(=O)O; Ala(pyrimidin-5-yl) = N[C@@H](Cc1cncnc1)C(=O)O; Phe(4-COOH) = N[C@@H](Cc1ccc(C(=O)O)cc1)C(=O)O; Bip = N[C@@H](Cc1ccc(-c2ccccc2)cc1)C(=O)O; Lys(Me3) = C[N+](C)(C)CCCC[C@H](N)C(=O)O; Phe(4-Br) = N[C@@H](Cc1ccc(Br)cc1)C(=O)O; Pro(cis-4-F) = O=C(O)[C@@H]1C[C@H](F)CN1; Ala(4-THP) = N[C@@H](CC1CCOCC1)C(=O)O; d(αMeD) = C[C@@](N)(CC(=O)O)C(=O)O; 4Pal = N[C@@H](Cc1ccncc1)C(=O)O; aThr = C[C@H](O)[C@H](N)C(=O)O; Dab = NCC[C@H](N)C(=O)O; Aib = CC(C)(N)C(=O)O

Biological target: Recombinant human IL-1β (BioLegend 579404) (human, UniProt P01584 117-269)
Assay: cell-based or functional assay

| Binder | MRC5 IC50 |
| --- | --- |
| cyclo([AEF4AcPip4c][4Pal][Phe(4-COOH)]G[Pro(cis-4-F)][Trp(βS-Me,4-F)][Aib]SW[Aib][Ala(pyrimidin-5-yl)]Q[Dab]G[dPro(4R-(4-pyridylmethyl))]) (ring closure inferred; not fully specified (N-terminus); printed as cyclic, AEF4AcPip4c-4Pal-Phe4COOH-G-Proc4F-SbMeW4F-Aib-S-W-Aib-PyrimAla-Q-Dab-G-dProc4CH24Pal) [SEQ ID NO 302] | 0.017 nM |
| cyclo([Bip4CONMe2″][4Pal][Phe(4-COOH)]G[Pro(cis-4-F)][Trp(βS-Me,4-F)][Aib]SW[d(αMeD)][Ala(4-THP)]Q[Dab]G[dPro(4R-(4-pyridylmethyl))]) (ring closure inferred; not fully specified (N-terminus); printed as cyclic, Bip4CONMe2-4Pal-Phe4COOH-G-Proc4F-SbMeW4F-Aib-S-W-daMeD-AlaTHP4-Q-Dab-G-dProc4CH24Pal) [SEQ ID NO 295] | 0.012 nM |
| cyclo([Phe(4-Br)][4Pal][Phe(4-COOH)]G[Pro(cis-4-F)][Trp(βS-Me,4-F)][Aib]SW[d(αMeD)][Ala(pyrimidin-5-yl)]Q[Dab]G[dPro(3S-(4-F-Bn))]) (ring closure inferred; not fully specified (N-terminus); printed as cyclic, Phe4Br-4Pal-Phe4COOH-G-Proc4F-SbMeW4F-Aib-S-W-daMeD-PyrimAla-Q-Dab-G-dProc3Bn4F) [SEQ ID NO 299] | 0.012 nM |
| cyclo([Bip][4Pal][Phe(4-COOH)]G[Pro(cis-4-F)][Trp(4-Cl)(βS-Me)][Aib]SW[d(αMeD)][Ala(pyrimidin-5-yl)]Q[Dab]G[dPro(4R-(4-pyridylmethyl))]) (ring closure inferred; not fully specified (N-terminus); printed as cyclic, Bip-4Pal-Phe4COOH-G-Proc4F-SbMeW4Cl-Aib-S-W-daMeD-PyrimAla-Q-Dab-G-dProc4CH24Pal) [SEQ ID NO 292] | 0.015 nM |
| cyclo([Bip(4'-CONH2)][4Pal][Phe(4-COOH)]G[Pro(cis-4-F)][Trp(βS-Me,4-F)][Aib]SW[d(αMeD)][Ala(4-THP)]Q[Dab]G[dPro(4R-(4-pyridylmethyl))]) (ring closure inferred; not fully specified (N-terminus); printed as cyclic, Bip4CONH2-4Pal-Phe4COOH-G-Proc4F-SbMeW4F-Aib-S-W-daMeD-AlaTHP4-Q-Dab-G-dProc4CH24Pal) [SEQ ID NO 296] | 0.013 nM |
| cyclo([Bip][4Pal][Phe(4-COOH)]G[Pro(cis-4-F)][1Nal(3S-Me)][Aib]SW[d(αMeD)][Ala(pyrimidin-5-yl)]Q[Dab]G[dPro(4R-(4-pyridylmethyl))]) (ring closure inferred) [SEQ ID NO 291] | 0.018 nM |
| cyclo([Bip(4'-COOH)][4Pal][Phe(4-COOH)]G[Pro(cis-4-F)][Trp(βS-Me,4-F)][Aib]SW[Aib][Lys(Me3)]Q[Dab]G[dPro(4R-Bzl(4-F))]) (ring closure inferred; not fully specified (N-terminus); printed as cyclic, Bip4CO2H-4Pal-Phe4COOH-G-Proc4F-sbMeW4F-Aib-S-W-Aib-LysMe3-Q-Dab-G-dProc4Bn4F) [SEQ ID NO 298] | 0.015 nM |
| cyclo([AEFPyrzCO][4Pal][Phe(4-COOH)]G[Pro(cis-4-F)][Trp(βS-Me,4-F)][Aib]SW[Aib][Ala(pyrimidin-5-yl)]Q[Dab]G[dPro(4R-(4-pyridylmethyl))]) (ring closure inferred; not fully specified (N-terminus); printed as cyclic, AEFPyrzCO-4Pal-Phe4COOH-G-Proc4F-SbMeW4F-Aib-S-W-Aib-PyrimAla-Q-Dab-G-dProc4CH24Pal) [SEQ ID NO 303] | 0.016 nM |
| cyclo([Bip][4Pal][Phe(4-COOH)]G[Pro(cis-4-F)][Trp(βS-Me,4-F)][Aib]SW[d(αMeD)][aThr]Q[Dab]G[dPro(4R-(4-pyridylmethyl))]) (ring closure inferred; not fully specified (N-terminus); printed as cyclic, Bip-4Pal-Phe4COOH-G-Proc4F-SbMeW4F-Aib-S-W-daMeD-alT-Q-Dab-G-dProc4CH24Pal) [SEQ ID NO 293] | 0.01 nM |
| cyclo([Bip][4Pal][Phe(4-COOH)]G[Pro(cis-4-F)][1Nal(3S-Me)][Aib]SW[d(αMeD)][Ala(4-THP)]Q[Dab]G[dPro(4R-(4-pyridylmethyl))]) (ring closure inferred) [SEQ ID NO 290] | 0.018 nM |
| cyclo([Bip(4'-COOH)][4Pal][Phe(4-COOH)]G[Pro(cis-4-F)][Trp(βS-Me,4-F)][Aib]SW[Aib][OrnMe3]Q[Dab]G[dPro(4R-Bzl(4-F))]) (ring closure inferred; not fully specified (N-terminus); printed as cyclic, Bip4CO2H-4Pal-Phe4COOH-G-Proc4F-sbMeW4F-Aib-S-W-Aib-OrnMe3-Q-Dab-G-dProc4Bn4F) [SEQ ID NO 297] | 0.022 nM |
| cyclo([AEFcHex][4Pal][Phe(4-COOH)]G[Pro(cis-4-F)][Trp(βS-Me,4-F)][Aib]SW[Aib][Ala(pyrimidin-5-yl)]Q[Dab]G[dPro(4R-(4-pyridylmethyl))]) (ring closure inferred; not fully specified (N-terminus)) [SEQ ID NO 301] | 0.017 nM |
| cyclo([Bip][4Pal][Phe(4-COOH)]G[Pro(cis-4-F)][Trp(βS-Me,4-F)][Aib]SW[d(αMeD)][Ala(4-THP)]Q[Dab]G[dPro(4R-(4-pyridylmethyl))]) (ring closure inferred; not fully specified (N-terminus); printed as cyclic, Bip-4Pal-Phe4COOH-G-Proc4F-SbMeW4F-Aib-S-W-daMeD-AlaTHP4-Q-Dab-G-dProc4CH24Pal) [SEQ ID NO 294] | 0.014 nM |
| cyclo([AEFPiv][4Pal][Phe(4-COOH)]G[Pro(cis-4-F)][Trp(βS-Me,4-F)][Aib]SW[Aib][Ala(pyrimidin-5-yl)]Q[Dab]G[dPro(4R-(4-pyridylmethyl))]) (ring closure inferred; not fully specified (N-terminus)) [SEQ ID NO 300] | 0.013 nM |
